This note sets out measurements from the supplement of paper PMC10567573.

The labels stand for the following.
B1: SNX8 (parent)
chain: VVLKLFLSFSGSDVQNKLKESAQC
B2: TOR1AIP2 (parent)
chain: HHVADAYTSSQKVSPIQIDGAGRT
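Further: lentivirally expressed fusions sorted by FACS into six bins by GFP to DsRed ratio, PSI derived from sequencing read proportions per bin multiplied by bin number.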

Variants of B1 are the subject of the first series. As to the kind of experiment: protein stability index of a GFP-peptide fusion (GPS, HEK-293T) (PSI 1-6); higher = more stable. Particulars: c terminus: a fixed tail appended.
For VVLKKFLSFSGSDVQNKLKESAQC [L5K], the protein stability index is 2.59.

Regarding VVLKEFLSFSGSDVQNKLKESAQC [L5E], the protein stability index came to 1.79.

VVLKGFLSFSGSDVQNKLKESAQC [L5G]: the protein stability index stood at 1.55.

On to VVLKYFLSFSGSDVQNKLKESAQC [L5Y], for which the protein stability index was determined as 1.69.

Turning to VVLKQFLSFSGSDVQNKLKESAQC [L5Q], the protein stability index amounted to 2.61.

In the case of VVLKLFLSFSGSDVQNYLKESAQC [K17Y], the protein stability index was 3.54.

For VVLKLFLSFSGSDVQNWLKESAQC [K17W], the protein stability index came to 4.7.

Take VVLKLFLSFSGSDVQNVLKESAQC [K17V]: the protein stability index was found to be 2.59.

Turning to VVLKLFLSFSGSDVQNTLKESAQC [K17T], the protein stability index is 3.29.

For the variant VVLKLFLSFSGSQVQNKLKESAQC [D13Q], the protein stability index is 3.33.

As to VVLKLFLSFSGSHVQNKLKESAQC [D13H], the protein stability index was 3.62.

For the variant VVLKLFLSFSGSTVQNKLKESAQC [D13T], the protein stability index is 2.28.

As to VVLKLFLSFSGSCVQNKLKESAQC [D13C], the protein stability index stood at 2.1.

For the variant VVLKLFLSFSGSFVQNKLKESAQC [D13F], the protein stability index stood at 2.07.

For VVLKLFLSFSGSDVQHKLKESAQC [N16H], the protein stability index amounted to 1.75.

For VVLKLFLSFSGSDVQQKLKESAQC [N16Q], the protein stability index stood at 4.03.

Consider VVLKLFLSFSGSDVQFKLKESAQC [N16F], for which the protein stability index worked out at 2.04.

As to VVLKLFLSFSGSDEQNKLKESAQC [V14E], the protein stability index was found to be 1.91.

Turning to VVLKLFLSFSGSDNQNKLKESAQC [V14N], the protein stability index was 1.99.

For the variant VVLKLFLSFSGSDYQNKLKESAQC [V14Y], the protein stability index was determined as 2.62.

In the case of VVLKLFLSFSGSDKQNKLKESAQC [V14K], the protein stability index turned out to be 1.82.

On to VVLKLFLSFSGSDVQNKLKESAKC [Q23K], for which the protein stability index came to 2.59.

Take VVLKLFLSFSGSDVQNKLKESACC [Q23C]: the protein stability index turned out to be 3.1.

For the variant VVLKLFLSFSGSDVQNKLKESAIC [Q23I], the protein stability index was determined as 3.23.

For VVLKLFLSFSGSDVQNKLKESADC [Q23D], the protein stability index worked out at 2.27.

For VVLKLFLSFSGSDVQNKLKESAFC [Q23F], the protein stability index was 1.71.

VVLKLFLSFSGSDVQNKLKESASC [Q23S]: the protein stability index was found to be 1.46.

Consider VVLKLFLSFSGSDVQNKLGESAQC [K19G], for which the protein stability index is 3.41.

For VVLKLFLSFSGSDVQNKLMESAQC [K19M], the protein stability index was 2.37.

On to VVLKLFLSFSGSDVQNKLQESAQC [K19Q], for which the protein stability index is 5.1.

As to VVLKLFLSFSGSDVQNKLRESAQC [K19R], the protein stability index worked out at 2.25.

As to VVLKLFLSFSGSDVQNKLAESAQC [K19A], the protein stability index is 4.92.

For the variant VVLKLFLSFPGSDVQNKLKESAQC [S10P], the protein stability index was 1.78.

VVLKLFLSFKGSDVQNKLKESAQC [S10K]: the protein stability index turned out to be 2.22.

For VVLKLFLSFAGSDVQNKLKESAQC [S10A], the protein stability index was 1.79.

As for VVLKLFLSFWGSDVQNKLKESAQC [S10W], the protein stability index was found to be 3.92.

Take VVLKLFLSFVGSDVQNKLKESAQC [S10V]: the protein stability index turned out to be 3.99.

As for VVLKLFLSFQGSDVQNKLKESAQC [S10Q], the protein stability index was 2.18.

Variants of B2 are the subject of another series. The series is described as above. Particulars: c terminus: a fixed tail appended.
On to HHVADAYTSSQKVSPIQIDGAGRM [T24M], for which the protein stability index came to 2.98.

On to HHVADAYTSSQKVSPIQIDGAGRR [T24R], for which the protein stability index was 3.68.

Consider HHVADAYTSSQKVSPIQIDGAGRW [T24W], for which the protein stability index came out at 2.97.

With HHVADAYTSSQKVSPIQIDGAGRH [T24H], the protein stability index was 3.38.

Consider HHVADAYTSSQKVSPIQIDGAGRN [T24N], for which the protein stability index amounted to 3.97.

HHVADAYTSSQKVSPIQIDGAGRG [T24G]: the protein stability index is 3.85.

With HHVADAYTSSQKVSPIQIDGAGRQ [T24Q], the protein stability index stood at 3.3.

For HHVADAYTSSQKVSPIQIDGAGRV [T24V], the protein stability index worked out at 3.51.

Consider HHVADAYTSSQKVSPIQIDGAGRY [T24Y], for which the protein stability index amounted to 2.93.

As for HHVADAYTSSQKVSPIQIDGAGRL [T24L], the protein stability index was 3.09.

As for HHVADAYTSSQKVSPIQIDGAGRE [T24E], the protein stability index was found to be 4.

In the case of HHVADAYTSSQKVSPIQIDGAGRP [T24P], the protein stability index worked out at 3.46.

As to HHVADAYTSSQKVSPIQIDGAGRK [T24K], the protein stability index amounted to 3.9.

As to HHVADAYTSSQKVSPIQIDGAGRA [T24A], the protein stability index was found to be 3.36.

Consider HHVADAYTSSQKVSPIQIDGAGRS [T24S], for which the protein stability index worked out at 3.58.

Consider HHVADAYTSSQKVSPIQIDGAGRD [T24D], for which the protein stability index stood at 4.18.

For HHVADAYTSSQKVSPIQIDGAGRC [T24C], the protein stability index worked out at 3.43.

HHVADAYTSSQKVSPIQIDGAGRF [T24F]: the protein stability index came to 2.81.

Take HHVADAYTSSQKVSPIQIDGAGRI [T24I]: the protein stability index turned out to be 3.

Regarding HHVADAYTSSQKVSPIQIDGAGPT [R23P], the protein stability index was 3.01.

In the case of HHVADAYTSSQKVSPIQIDGAGST [R23S], the protein stability index is 3.83.

On to HHVADAYTSSQKVSPIQIDGAGLT [R23L], for which the protein stability index was 3.36.

With HHVADAYTSSQKVSPIQIDGAGYT [R23Y], the protein stability index was determined as 2.94.

With HHVADAYTSSQKVSPIQIDGAGIT [R23I], the protein stability index was found to be 3.45.

On to HHVADAYTSSQKVSPIQIDGAGGT [R23G], for which the protein stability index turned out to be 3.68.

Consider HHVADAYTSSQKVSPIQIDGAGWT [R23W], for which the protein stability index was found to be 3.1.

On to HHVADAYTSSQKVSPIQIDGAGTT [R23T], for which the protein stability index is 3.47.

Consider HHVADAYTSSQKVSPIQIDGAGKT [R23K], for which the protein stability index was 3.28.

As to HHVADAYTSSQKVSPIQIDGAGHT [R23H], the protein stability index turned out to be 3.76.

On to HHVADAYTSSQKVSPIQIDGAGVT [R23V], for which the protein stability index worked out at 3.29.

As to HHVADAYTSSQKVSPIQIDGAGDT [R23D], the protein stability index was 4.11.

For HHVADAYTSSQKVSPIQIDGAGCT [R23C], the protein stability index worked out at 3.68.

With HHVADAYTSSQKVSPIQIDGAGMT [R23M], the protein stability index was 3.26.

Take HHVADAYTSSQKVSPIQIDGAGQT [R23Q]: the protein stability index was determined as 3.71.

Consider HHVADAYTSSQKVSPIQIDGAGET [R23E], for which the protein stability index was found to be 3.91.

For the variant HHVADAYTSSQKVSPIQIDGAGFT [R23F], the protein stability index stood at 3.12.

With HHVADAYTSSQKVSPIQIDGAGAT [R23A], the protein stability index turned out to be 3.86.

In the case of HHVADAYTSSQKVSPIQIDGAGNT [R23N], the protein stability index turned out to be 3.81.

As to HHVADAYTSSQKVSPIQIDGAPRT [G22P], the protein stability index came out at 3.61.

In the case of HHVADAYTSSQKVSPIQIDGATRT [G22T], the protein stability index came out at 3.09.

Consider HHVADAYTSSQKVSPIQIDGAHRT [G22H], for which the protein stability index worked out at 3.47.

For HHVADAYTSSQKVSPIQIDGADRT [G22D], the protein stability index came out at 3.99.

For HHVADAYTSSQKVSPIQIDGARRT [G22R], the protein stability index stood at 3.19.

HHVADAYTSSQKVSPIQIDGAFRT [G22F]: the protein stability index amounted to 2.7.

HHVADAYTSSQKVSPIQIDGAMRT [G22M]: the protein stability index was 3.32.

On to HHVADAYTSSQKVSPIQIDGAWRT [G22W], for which the protein stability index turned out to be 2.46.

For HHVADAYTSSQKVSPIQIDGALRT [G22L], the protein stability index came to 2.92.

In the case of HHVADAYTSSQKVSPIQIDGANRT [G22N], the protein stability index was 3.25.

As for HHVADAYTSSQKVSPIQIDGACRT [G22C], the protein stability index amounted to 3.6.

On to HHVADAYTSSQKVSPIQIDGAQRT [G22Q], for which the protein stability index stood at 3.5.

In the case of HHVADAYTSSQKVSPIQIDGAERT [G22E], the protein stability index is 3.93.

HHVADAYTSSQKVSPIQIDGAIRT [G22I]: the protein stability index was found to be 3.26.

For HHVADAYTSSQKVSPIQIDGAKRT [G22K], the protein stability index is 3.72.

Turning to HHVADAYTSSQKVSPIQIDGAYRT [G22Y], the protein stability index amounted to 2.82.

HHVADAYTSSQKVSPIQIDGASRT [G22S]: the protein stability index is 3.36.

HHVADAYTSSQKVSPIQIDGAVRT [G22V]: the protein stability index turned out to be 3.4.
